Publication PMC9170038

How the values were obtained:
[1] = tested on: Tetracycline aptamer, Light-up construct (RNA, aptamer) GGGAACGUCUCCGAGUAGGAGACGAAGGGAGAGUGGCAGCUUACAACGCUAAAACAUACCUGCACCACCGACCUUGAAAACAAGGGUAACGAAUGUGGAGCAGGAGAGGUGAAGAAUACGACCACCUAGCGAAGUGGGCUGUUGCUUUUCCAAGCUUAUCGAGUAGAUAAGCAAAAAGAAACAACAACAACAAC; test: DMS chemical mapping; conditions: 5 mM MgCl2, 1x PBS, pH 6.1, 24 °C
[2] = tested on: Tetracycline aptamer, RNA-MaP condition construct (RNA, aptamer) GGAAAGGCGCUAAAACAUACCAGUUCGCUGGAGAGGUGAAGAAUACGACCACCUAGCGCCAAAGAAACAACAACAACAAC; test: 1M7 chemical mapping; conditions: 80 mM KCl, 4 mM MgCl2; 100 mM Tris-HCl, pH 7.5, 37 °C
[3] = tested on: BH_E029 (RNA, aptamer) GGGAGAGUGGCAGCUUACAACGUAACGAUGCGGCCGCCACUGAUCCGACUGGUUAACAGAAAGUCCUGACCAGGUAACGAAUGGUCAGGACCGGGCAUUGUUACGAAGUGGGCUGUUGCUUUUCC; test: light-up fluorescence kinetics; conditions: 5 mM MgCl2, 1x PBS, pH 6.1, with tryptophan (ON state)
[4] = tested on: FMN aptamer, RNA-MaP condition construct (RNA, aptamer) GGAAAGGCGUGUAGGAUAUGCUUCGGCAGAAGGACACGCCAAAGAAACAACAACAACAAC; test: 1M7 chemical mapping; conditions: 80 mM KCl, 4 mM MgCl2; 100 mM Tris-HCl, pH 7.5, 37 °C
[5] = tested on: BC_JL-sng2-3.09 (RNA, aptamer) GGGUAUGUCGCAGAAGUAGCUAUCGGAGGAUAUUCAUACCGGAAACGGACAUGAGGAUCACCCAUGUGGCGAAAGCCUUGGGAGAAGGCUGAUAGCUACAACUGCGACAUACCCAAAAAAAAAAAAAAAAAAAAAAAAA; test: flow cytometry of RNA beads with MS2 protein; DMS chemical mapping; conditions: RNA immobilised on beads; reversible over 80 FMN buffer exchanges
[6] = tested on: FMN aptamer, Light-up construct (RNA, aptamer) GGGAACGUCUCCGAGUAGGAGACGAAGGGAGAGUGGCAGCUUACAAUUCCAGCCGACCACUGAAAUACUCUAGAGGAUAUGACAGACAAAGUCUGUCAGAAGGCUAGAGCAGUGGGUAACGAAUGCUGGAAAAGUGGGCUGUUGCUUUUCCAAGCUUAUCGAGUAGAUAAGCAAAAAGAAACAACAACAACAAC; test: DMS chemical mapping; conditions: 5 mM MgCl2, 1x PBS, pH 6.1, 24 °C
[7] = target: T1, MS2 coat protein, dlFG mutant (Escherichia phage MS2, UniProt P03612, del68-81insG); test: 4 mM Mg2+; no ligand; RNA-MaP array; 100 mM Tris-HCl pH 7.5, 80 mM KCl, 4 mM MgCl2, 0.1 mg/mL BSA, 1 mM DTT, 0.01 mg/mL yeast tRNA, 0.01% Tween-20; protein 1.5 nM to 3 uM; 37 C (Table S3); conditions: chain copies: 2; label: tethered by stalled RNA polymerase
[8] = target: T1, MS2 coat protein, dlFG mutant; test: 4 mM Mg2+; FMN 200 uM; RNA-MaP array; 100 mM Tris-HCl pH 7.5, 80 mM KCl, 4 mM MgCl2, 0.1 mg/mL BSA, 1 mM DTT, 0.01 mg/mL yeast tRNA, 0.01% Tween-20; protein 1.5 nM to 3 uM; 37 C (Table S3); conditions: chain copies: 2; label: tethered by stalled RNA polymerase
[9] = target: T1, MS2 coat protein, dlFG mutant; test: 4 mM Mg2+; L-tryptophan 2.4 mM; RNA-MaP array; 100 mM Tris-HCl pH 7.5, 80 mM KCl, 4 mM MgCl2, 0.1 mg/mL BSA, 1 mM DTT, 0.01 mg/mL yeast tRNA, 0.01% Tween-20; protein 1.5 nM to 3 uM; 37 C (Table S3); conditions: chain copies: 2; label: tethered by stalled RNA polymerase

| Molecule | Kd [7] | other results |
| --- | --- | --- |
| CN(C)[C@@H]1C(=O)C(C(N)=O)=C(O)[C@@]2(O)C(=O)C3=C(O)c4c(O)cccc4[C@@](C)(O)[C@H]3C[C@@H]12 | – | Kd [1]: 57.50 ± 22.58/-15.88 nM; Kd [2]: 622.07 ± 132.12/-105.63 nM |
| CN(C)c1ccc(C(=C2C=CC(=[N+](C)C)C=C2)c2ccccc2)cc1 | – | binding [3]: yes |
| Cc1cc2nc3c(=O)[nH]c(=O)nc-3n(C[C@H](O)[C@H](O)[C@H](O)COP(=O)(O)O)c2cc1C | – | Kd [4]: 1.71 ± 0.60/-0.44 μM; binding [5]: yes; Kd [6]: 1.57 ± 0.58/-0.41 μM |
| Eterna 12242 (Exclusion 3) (ssRNA) RNA: GACUAGGCAGGAUAUACAUGAGGAUCACCCAUGUGUCUGCGAUAGGCACGUGAUUACUGUAGAAGGGCCUUGAC | 0.33 µM | – |
| Eterna 7671436 (Same State - Theophylline A) (ssRNA) RNA: UGGACCUGACUCGAUAAGAGUCAAGGAGAUACCAGCCACGAAAGUGGCCCUUGGCAGCUCUGCCAGUGAUGUUGGUCAAGGUCCU | > 3 µM | – |
| Eterna 6391704 (Inverted Exclusion NG 3) (ssRNA) RNA: AGCUGGUGACAGCAUCCAUCUUAACAUGAGGAUCACCCAUGUAGAAGGCUGUACGGUUACCGUACAGAGGAUAUACAUAGAUGG | – | Kd [8]: 0.00928 µM |
| Eterna 6124182 (Same State NG 2) (ssRNA) RNA: GUAGCAUGAUUAGGAUAUUCAGCGAAUAGAUUGACAUGAGGAUCACCCAUGUGGCGAAAGCCGAGGGAGAAGGGAUGAUGCUAC | 0.165 µM | – |
| Eterna 6121097 (Same State NG 1) (ssRNA) RNA: CGCUGUCACGCAGGAUAUGCAUUGGAUUACAAUGCAGAAGGGCGAUUACAUGAGGAUCACCCAUGUGUCGACAGUGAAGAAGAG | 0.532 µM | – |
| Eterna 7681146 (Same State - Arginine A) (ssRNA) RNA: ACUGGGUUGACGAAAGUCAACAAAAGAGAAGGAGCGCACGAAAGUGCAGGUAGGUCGCUCAUCCAGUGAUGUUGGAUCAUCCAGA | > 3 µM | – |
| Eterna 6402672 (Exclusion NG 2) (ssRNA) RNA: UGGCCCGCCGGAGGAUAUCUACUCUGUGGUGCACUGCGUUUGCAAUACAUGAGGAUCACCCAUGUAGAGAAGGCCGAGGGCACA | 0.269 µM | – |
| Eterna 1165 (Exclusion - Theophylline B) (ssRNA) RNA: CCAAGCGUCAGCGAUACCAGAAUUCUAGUGAUGUUAGGUUCUGUCAUUGUACUAGCAGUGUUCCCUUGGCAGCGCGUGAUAGGCA | > 3 µM | – |
| Eterna 6461477 (Inverted Same State NG 1) (ssRNA) RNA: GCUGCAUGUGAGAAGGCGAUCAUGAAACAUGAUCGAGGAUAUCAUGUAAACAUGAGGAUCACCCAUGUAUGGGUAUUAAGCAGC | 0.272 µM | – |
| Eterna 7734974 (Same State - Theophylline A) (ssRNA) RNA: AAAAUAAAUAAAACACGUAACAUGAAGGAUACCAGACAGGAAACUGUCCCUUGGCAGCCUCUACAUGAGGAUCACCCAUGUCGUG | 0.246 µM | – |
| Eterna 7616241 (Exclusion - Tryptophan A) (ssRNA) RNA: AAUGUAUGCCACAUGAGGAUCACCCAUGUGCGAGGACCGGUACGGCCGCCACUCGGUCGGUGGUUAAUGAAGAUAUACAAUAAUG | – | Kd [9]: 0.0155 µM |
| Eterna 7675419 (Same State - Tryptophan A) (ssRNA) RNA: UUUAAACAUAGUGAUGUUAUGUAACAAUGACGAGGACCGGUACGGCCGCCACUCGAGAGAGAUGAUGGUAAAAUAAAUAAUUUUC | > 3 µM | – |
| Eterna 7612197 (Same State - Arginine B) (ssRNA) RNA: ACGUAAAGCAGAAGGAGCGUCUUCAAUUUACAUGAGGAUCACCCAUGUUUUGUGAUCAUAUGACAGGUAGGUCGCUGAAGUACGA | 0.127 µM | – |
| Eterna 7752556 (Exclusion - Arginine B) (ssRNA) RNA: UUAGUCUAGAGAAGGAGCGAGUGAUGUUCGCAUGCUAUGAUGAAUUCAUCAUAGUUUAAUCCUCAGGUAGGUCGCUCUAGACAUU | > 3 µM | – |
| Eterna 6450941 (Small Loop Exclusion NG 3) (ssRNA) RNA: UGGACCGAGCUAUCGGUUGACUGGGAGGAUAUGACAUGAGGAUCACCCAUGUGGGAUCUAAAUUGUCAGAAGGCUCGUUCUGGG | 0.264 µM | – |
| Eterna 6449046 (Small Loop Same State NG 1) (ssRNA) RNA: AAUAAACACACAGGAUAUAGCAUCGUCGUUGCGAACUUAGCGACGACGAUGCUAGAAGGGUGAACACAUGAGGAUCACCCAUGU | 0.195 µM | – |
| Eterna 7759081 (Exclusion - Theophylline A) (ssRNA) RNA: AACUGUCAAGGACAACAUUACUGAGGUGAUACCAGCAUCGAAAGAUGCCCUUGGCAGCGCCAACUUGCAGUGAUGUUGCAAGUAA | > 3 µM | – |
| Eterna 7726098 (Exclusion - FMN A) (ssRNA) RNA: AAGUGAUGUUGUAGUGAUGUUGUGAUGUUGCAGGAUAUAUAGUGAUGUAGAAGGGUAAGUACUUAUUUUUUUUUUGAGUUAUGUU | > 3 µM | – |
| Eterna 6430560 (Small Loop Same State NG 3) (ssRNA) RNA: ACUUAAAUACCCAAAAGUCGGGCGGAGGAUAUGGAGCUUCCACCACAUGAGGAUCACCCAUGUCUUCAGAAGGCCGCCCUUGGA | 0.1 µM | – |
| Eterna 7692390 (Exclusion - Arginine A) (ssRNA) RNA: AGUAGGAAACUACAAUCCUCUCUUACUGAAGGAGCGCGUGAAAACGCAGGUAGGUCGCAGGAUUGGAGAGUGAUGUUCUCCUUAA | > 3 µM | – |
| Eterna 6128104 (Same State NG 3) (ssRNA) RNA: GCUCGAUGAGCUGUCUACAUGAGGAUCACCCAUGUAGAUGGGCAGGAUAUUUACGUGCUUUAUGUAGAGAAGGGCCCAUCGAGC | 0.191 µM | – |
| Eterna 1206 (Exclusion - Tryptophan A) (ssRNA) RNA: CUAUAGACCCUUCGGAUAGUGAUGUUGUCACGAGGACCGGUACGGCCGCCACUCGCUGCCACCAUACCGCUUCACGGAACGAGCA | > 3 µM | – |
